According to PMC9329948, “Surface-Enhanced Carboxyphenyl Diazonium Functionalized Screen-Printed Carbon Electrode for the Screening of Tuberculosis in Sputum Samples”:

Tests used:
CFP10 antigen [1] = target: T1, CFP10 antigen (Mycobacterium tuberculosis, UniProt P9WNK5 2-100); experiment: ELONA; no significant difference from aptamer-alone control; ELONA: antigen coated in 0.06 M carbonate pH 9.6, 3% BSA block, aptamer 2 h at room temperature, 0.01 M PBS washes; aptamer/electrode binding buffer 20 mM Tris-HCl pH 7.4, 150 mM NaCl, 2 mM MgCl2, 2 mM KCl, 2 mM CaCl2, room temperature; details: protein: recombinant; label: biotin
MPT64 antigen [2] = target: T2, MPT64 antigen (Mycobacterium tuberculosis, UniProt P9WIN9 24-228); experiment: ELONA; 5 uM aptamer; antigen coated at 5 ug/mL; p < 0.0001 vs control; ELONA: antigen coated in 0.06 M carbonate pH 9.6, 3% BSA block, aptamer 2 h at room temperature, 0.01 M PBS washes; aptamer/electrode binding buffer 20 mM Tris-HCl pH 7.4, 150 mM NaCl, 2 mM MgCl2, 2 mM KCl, 2 mM CaCl2, room temperature; details: protein: recombinant; label: biotin
CFP10 antigen [3] = target: T1, CFP10 antigen; experiment: amperometric sandwich aptasensor; selectivity test; read-out also needs anti-MPT64 antibody; ELONA: antigen coated in 0.06 M carbonate pH 9.6, 3% BSA block, aptamer 2 h at room temperature, 0.01 M PBS washes; aptamer/electrode binding buffer 20 mM Tris-HCl pH 7.4, 150 mM NaCl, 2 mM MgCl2, 2 mM KCl, 2 mM CaCl2, room temperature; details: protein: recombinant
MPT64 antigen [4] = target: T2, MPT64 antigen; experiment: amperometric sandwich aptasensor; HRP anti-MPT64 antibody detection; LOD 1.11 ng/mL, linear 5-200 ng/mL; ELONA: antigen coated in 0.06 M carbonate pH 9.6, 3% BSA block, aptamer 2 h at room temperature, 0.01 M PBS washes; aptamer/electrode binding buffer 20 mM Tris-HCl pH 7.4, 150 mM NaCl, 2 mM MgCl2, 2 mM KCl, 2 mM CaCl2, room temperature; details: protein: recombinant

T2 sequence (P9WIN9 24-228): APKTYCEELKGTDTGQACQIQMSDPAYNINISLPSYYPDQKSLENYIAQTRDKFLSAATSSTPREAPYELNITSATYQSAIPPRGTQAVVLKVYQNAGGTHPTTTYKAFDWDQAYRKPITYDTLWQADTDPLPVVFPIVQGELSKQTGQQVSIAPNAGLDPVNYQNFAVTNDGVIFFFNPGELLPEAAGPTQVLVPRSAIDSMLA
T1 sequence (P9WNK5 2-100): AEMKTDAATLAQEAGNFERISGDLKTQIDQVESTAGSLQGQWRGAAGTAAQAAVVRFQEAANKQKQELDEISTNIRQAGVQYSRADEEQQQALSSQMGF

Binder	binding result (CFP10 antigen [1])	binding result (MPT64 antigen [2])	binding result (CFP10 antigen [3])	binding result (MPT64 antigen [4])
TTTTTTTTTTGGGAGCTGATGTCGCATGGGTTTTGATCACATGA (ssDNA, biotin, position not stated) [MPT64 aptamer, biotinylated (ELONA)]	no binding	binds		
TTTTTTTTTTGGGAGCTGATGTCGCATGGGTTTTGATCACATGA (ssDNA, 5' AmMC6) [MPT64 aptamer, 5'-amino (electrode)]			no binding	binds
